Target: rat GluD2 ATD tetramerised with an engineered tetrameric coiled-coil zipper based on GCN4 (rat | not stated)

stoichiometry N: 4
Substance: rat GluD2 ATD tetramerised with an engineered tetrameric coiled-coil zipper based on GCN4 (domain or fragment)
